Assay [1] concerns the target HLA-DR(α1*0101,α1*0701) (human). The experiment in a line: competition assay on purified HLA; tracer YKL.
Assay [2] deals with HLA-DR(α1*0101,α4*0101) (human). In words: competition assay on purified HLA; tracer E2/E168.
Assay [3] addresses HLA-DR(α1*0101,α1*0301) (human). The experiment in a line: competition assay on purified HLA; tracer MT (2-16).
Assay [4] addresses HLA-DR(α1*0101,α1*1301) (human). The experiment in a line: competition assay on purified HLA; tracer B1 (21-36).
Assay [5] concerns the target HLA-DR(α1*0101,α1*1501) (human). In words: competition assay on purified HLA; tracer A3 (152-166).
In assay [6] the target is HLA-DR(α1*0101,α1*0101) (human). In words: competition assay on purified HLA; tracer HA (307-319).
Assay [7] addresses HLA-DR(α1*0101,α1*1101) (human). Described as above.
In assay [8] the target is HLA-DR(α1*0101,α5*0101) (human). The assay is described as above.
In assay [9] the target is HLA-DP(α1*0101,α1*0401) (human). In words: competition assay on purified HLA; tracer bOxy 271-287.
Assay [10] has as its target HLA-DR(α1*0101,α3*0101) (human). In words: competition assay on purified HLA; tracer LOL (191-210).
The target of assay [11] is DP401=HLA-DP(α1*0101,α1*0401) (human). In words: HLA class II competition binding assay, biotinylated tracer peptide.
The target in assay [12] is DR11=HLA-DR(α1*0101,α1*1101) (human). The assay is described as above.
Assay [13] has as its target DR13=HLA-DR(α1*0101,α1*1301) (human). Described as above.
Assay [14] deals with DR15=HLA-DR(α1*0101,α1*1501) (human). The assay is described as above.
In assay [15] the target is DR1=HLA-DR(α1*0101,α1*0101) (human). Described as above.
In assay [16] the target is DR3=HLA-DR(α1*0101,α1*0301) (human). The assay is described as above.
For assay [17], the target named is DR7=HLA-DR(α1*0101,α1*0701) (human). The description is as above.
Assay [18] addresses DRB3=HLA-DR(α1*0101,α3*0101) (human). Described as above.
The target in assay [19] is DRB4=HLA-DR(α1*0101,α4*0101) (human). The assay is described as above.
For assay [20], the target named is DRB5=HLA-DR(α1*0101,α5*0101) (human). The assay is described as above.
The target of assay [21] is DP (α1*0101, α1*0402) (human). In words: competition assay on purified HLA; tracer bOxy 271-287.
In assay [22] the target is DP402=HLA-DR(α1*0101,α1*0402) (human). The experiment in a line: HLA class II competition binding assay, biotinylated tracer peptide.
Assay [23] deals with HLA-DR(α1*0101,α1*0401) (human). The experiment in a line: competition assay on purified HLA; tracer HA (307-319).
Assay [24] has as its target DR4=HLA-DR(α1*0101,α1*0401) (human). In words: HLA class II competition binding assay, biotinylated tracer peptide.

The text below walks through data of patent publication US20080299140A1, “Immunogenic Composition and Peptide Sequences for Prevention and Treatment of an Hsv Condition” (priority 2002, published 2008).

The term IC50 denotes the concentration that gives 50% inhibition. As to HSV1 1 (gB809-840) (peptide), the IC50 stood at 296 nM in assay [1]; 43 nM in assay [2]; 995 nM in [3]; 284 nM in [4]; 3 nM in [5]; 6 nM in [6]. Also, the IC50 in [7] is 13 nM; in assay [8] it was 6 nM; in assay [9], 1610 nM; in assay [10], over 100000 nM; in assay [11] it was 1610 nM; in [12] it was 13 nM. The 50% inhibitory concentration (IC50) in assay [13] is 284 nM; in assay [14] it was 3 nM; in [15] it was 6 nM; in assay [16], 995 nM; in assay [17] it was 296 nM; in assay [18], over 100000 nM. Besides, the half-maximal inhibitory concentration (IC50) is 43 nM in [19] and 6 nM in [20].

As for HSV1 2 (gB401-433) (peptide), the IC50 in [1] was 1 nM; in assay [3], over 100000 nM; in assay [4] it was over 100000 nM; in [5], 60 nM; in assay [6], under 1 nM; in assay [10] it was over 100000 nM. Besides, the IC50 in assay [13] was over 100000 nM; in [14], 60 nM; in assay [15], under 1 nM; in [16], over 100000 nM; in assay [17] it was 1 nM; in assay [18], over 100000 nM.

On to HSV1 3 (gB111-140) (peptide), for which the IC50 in assay [4] turned out to be 500 nM; in assay [5] it was 30 nM; in assay [9], 80 nM; in [11], 60 nM.

In the case of HSV1 4 (gB424-445) (peptide), the 50% inhibitory concentration (IC50) in assay [3] is over 100000 nM; in [6], 30 nM; in [10] it was over 100000 nM; in assay [15], 30 nM; in assay [16], over 100000 nM; in assay [18], over 100000 nM.

Consider HSV1 5 (gB173-204) (peptide), for which the half-maximal inhibitory concentration (IC50) in assay [2] and in assay [19] was 90000 nM each time.

Turning to HSV1 6 (gB243-282) (peptide), the 50% inhibitory concentration (IC50) in [3] was determined as 4000 nM; in assay [5], 1 nM; in assay [6], 1 nM; in assay [8] it was 9 nM; in [14] it was 1 nM; in assay [15], 1 nM. The IC50 in assay [16] amounted to 4000 nM; in assay [20], 9 nM.

HSV1 7 (gB631-661) (peptide): the IC50 is over 100000 nM in assay [3]; over 100000 nM in [4]; 60 nM in [5]; over 100000 nM in assay [13]; 60 nM in assay [14]; over 100000 nM in assay [16].

For HSV1 8 (gB765-799) (peptide), the half-inhibitory concentration (IC50) in [1] amounted to 20 nM; in assay [2], 232 nM; in assay [3], 4780 nM; in assay [4], 314 nM; in assay [5] it was 3 nM; in [6], 2 nM. The half-maximal inhibitory concentration (IC50) in assay [7] turned out to be 4 nM; in assay [8], 2 nM; in assay [9], 107 nM; in assay [10], 55000 nM; in [11], 107 nM; in assay [12], 4 nM. Besides, the IC50 was determined as 314 nM in [13]; 3 nM in assay [14]; 2 nM in [15]; 4780 nM in assay [16]; 20 nM in assay [17]; 55000 nM in assay [18]. In addition, the concentration for half-maximal inhibition (IC50) worked out at 232 nM in assay [19] and 2 nM in assay [20].

Turning to HSV1 10 (gB80-106) (peptide), the IC50 in [10] and in assay [18] was over 100000 nM each time.

For the substance HSV1 11 (gB453-483) (peptide), the IC50 in assay [1] was 30 nM; in [3], over 100000 nM; in [4], over 100000 nM; in assay [10], over 100000 nM; in assay [13] it was over 100000 nM; in assay [16], over 100000 nM. In addition, the IC50 in assay [17] is 30 nM; in [18] it was over 100000 nM.

On to HSV1 12 (gB568-594) (peptide), for which the IC50 in [3], in [4], in [13] and in assay [16] was over 100000 nM in each case.

As for HSV1 13 (gB590-612) (peptide), the IC50 in assay [21], in assay [9], in [11] and in assay [22] was over 100000 nM throughout.

With HSV1 14 (gB607-634) (peptide), the concentration for half-maximal inhibition (IC50) in assay [3] and in assay [10] was over 100000 nM each time.

Consider HSV1 30 (gD0-28) (peptide), for which the half-maximal inhibitory concentration (IC50) was 374 nM in assay [1]; over 100000 nM in [2]; over 100000 nM in assay [4]; 11000 nM in assay [5]; 648 nM in assay [7]; 7 nM in assay [8]. In addition, the half-inhibitory concentration (IC50) in assay [21] is 3800 nM; in assay [9], 17900 nM; in assay [10], 535 nM; in assay [11], 17700 nM; in assay [22] it was 3800 nM; in [12] it was 648 nM. Moreover, the IC50 was over 100000 nM in [13]; 11000 nM in assay [14]; 79 nM in [16]; 374 nM in assay [17]; 535 nM in [18]; over 100000 nM in [19]. Also, the IC50 in [20] amounted to 7 nM.

As for HSV1 32 (gD77-104) (peptide), the concentration for half-maximal inhibition (IC50) was 4 nM in assay [1]; 2350 nM in assay [3]; 300 nM in assay [7]; 1 nM in assay [8]; 381 nM in [21]; 1450 nM in assay [9]. The IC50 in [10] is over 100000 nM; in assay [11] it was 1450 nM; in assay [22], 381 nM; in assay [12], 300 nM; in assay [16], 2350 nM; in [17], 4 nM. The values for the concentration for half-maximal inhibition (IC50) in [18] and in [20] were over 100000 nM and 1 nM, respectively.

Regarding HSV1 34 (gD146-179) (peptide), the concentration for half-maximal inhibition (IC50) was 316 nM in [1]; 743 nM in assay [2]; 10200 nM in [3]; over 100000 nM in assay [4]; 35 nM in [5]; 40 nM in [6]. Also, the IC50 in assay [23] came out at 632 nM; in [7], 175 nM; in assay [8], 85 nM; in [9], 115 nM; in assay [10] it was 2020 nM; in assay [11] it was 115 nM. For the same substance, the IC50 in assay [12] was 175 nM; in assay [13], over 100000 nM; in [14], 35 nM; in [15], 40 nM; in assay [16], 10200 nM; in assay [24] it was 632 nM. Also, the IC50 turned out to be 316 nM in assay [17], 2020 nM in assay [18], 743 nM in [19] and 85 nM in [20].

Regarding HSV1 38 (gD176-206) (peptide), the half-inhibitory concentration (IC50) came to 21 nM in assay [1]; 1800 nM in [2]; 1340 nM in assay [3]; 200 nM in assay [4]; 54 nM in assay [6]; 955 nM in [23]. Besides, the IC50 stood at 5 nM in assay [7]; 91 nM in assay [8]; 91 nM in assay [9]; 25000 nM in assay [10]; 91 nM in [11]; 5 nM in [12]. The IC50 was 200 nM in assay [13]; 54 nM in assay [15]; 1340 nM in [16]; 955 nM in [24]; 21 nM in assay [17]; 25000 nM in assay [18]. In addition, the IC50 is 1800 nM in [19] and 91 nM in assay [20].

On to HSV1 41 (gD96-123) (peptide), for which the concentration for half-maximal inhibition (IC50) was found to be 1670 nM in [2]; 4760 nM in assay [4]; 167 nM in assay [5]; 3 nM in [6]; 598 nM in [7]; 257 nM in assay [9]. The IC50 was over 100000 nM in assay [10]; 267 nM in [11]; 598 nM in [12]; 4760 nM in assay [13]; 167 nM in assay [14]; 3 nM in assay [15]. Besides, the half-inhibitory concentration (IC50) in assay [18] is over 100000 nM; in assay [19], 1670 nM.
